The text below walks through data of publication PMC3070698.

Experiment [1] concerns the target T1, TLR9 tagged at the C terminus with enhanced green fluorescent protein, Q9NR96.
T1 chain: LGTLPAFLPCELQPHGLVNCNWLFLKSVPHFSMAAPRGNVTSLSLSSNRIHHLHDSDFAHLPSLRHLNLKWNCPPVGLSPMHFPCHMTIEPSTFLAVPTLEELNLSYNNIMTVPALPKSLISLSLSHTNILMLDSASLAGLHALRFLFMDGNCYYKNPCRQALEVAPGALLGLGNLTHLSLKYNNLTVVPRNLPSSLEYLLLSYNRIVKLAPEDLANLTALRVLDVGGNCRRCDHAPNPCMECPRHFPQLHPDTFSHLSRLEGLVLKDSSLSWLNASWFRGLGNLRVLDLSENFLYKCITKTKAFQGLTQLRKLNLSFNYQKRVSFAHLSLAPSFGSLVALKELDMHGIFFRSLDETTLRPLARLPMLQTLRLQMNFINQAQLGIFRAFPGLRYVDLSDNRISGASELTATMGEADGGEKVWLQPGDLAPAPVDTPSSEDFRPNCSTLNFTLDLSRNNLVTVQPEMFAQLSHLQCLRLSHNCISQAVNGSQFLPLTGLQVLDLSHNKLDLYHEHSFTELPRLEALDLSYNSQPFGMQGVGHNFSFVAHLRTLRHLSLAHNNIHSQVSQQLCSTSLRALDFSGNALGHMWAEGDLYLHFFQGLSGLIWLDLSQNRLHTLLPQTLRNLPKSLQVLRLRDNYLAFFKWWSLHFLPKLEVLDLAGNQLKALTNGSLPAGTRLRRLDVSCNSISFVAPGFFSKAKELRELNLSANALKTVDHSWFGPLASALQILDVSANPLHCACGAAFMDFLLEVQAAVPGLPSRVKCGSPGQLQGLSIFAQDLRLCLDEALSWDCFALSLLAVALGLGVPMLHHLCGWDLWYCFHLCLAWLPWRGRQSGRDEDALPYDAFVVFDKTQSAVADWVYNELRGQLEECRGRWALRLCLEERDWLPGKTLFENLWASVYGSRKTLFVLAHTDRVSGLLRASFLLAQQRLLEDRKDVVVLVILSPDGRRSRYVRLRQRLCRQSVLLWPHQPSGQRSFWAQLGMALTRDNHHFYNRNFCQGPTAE
The experiment is described as follows: two-dimensional photon counting histogram (2dPCH); live HEK 293 cells expressing TLR9-GFP, incubated with Cy5-labelled CpG or non-CpG DNA; single-component fit; brightness in the green and red channels; bin size 50 µs. To be noted: remark: other sources report otherwise.

Experiment [2] addresses T1, TLR9 tagged at the C terminus with …. The experiment in a line: photon counting histogram (PCH); live HEK 293 cells expressing TLR9-GFP; molecular brightness compared with GFP monomer; two-component global fit with the brightness of GFP monomer and GFP dimer fixed; bin size 50 µs; without DNA, with CpG DNA or with non-CpG DNA; monomer to dimer. To be noted: remark: other sources report otherwise.

B1: TLR9 tagged at the C terminus with enhanced green fluorescent protein, Q9NR96 26-1032 (receptor)
chain: T1 chain
On to B1, for which, in experiment [1], the stoichiometry N – broadly, a count of units in the complex or per binding partner – stood at 2. Moreover, in experiment [2], the percent of TLR9 as dimers (no DNA) was 79.1%, the percent of TLR9 as dimers (with CpG DNA) amounted to 82.6%, the percent of TLR9 as dimers (with non-CpG DNA) was 82.6% and the stoichiometry N was found to be 2.
